In paper PMC13223232, “Structural basis for TRF2-RAP1 recruitment by EBNA1 at the EBV origin of replication” (Scientific Reports, 2025):

Assays:
Rap1 full length = biological target: T1, Rap1 full length (UniProt Q9NYB0 1-399); assay: EMSA; up to 480 nM, no EBNA1; EMSA: 10 mM HEPES pH 7.5, 300 mM KCl (100 mM for TRFH), 5 mM MgCl2, 1 mM ZnCl2, 5 mM BME, 0.05% NP-40, 5% glycerol; 5 nM probe; 20 nM EBNA1 in TRF2/Rap1 titrations; 1.4% agarose; temperature not stated; settings: protein: recombinant; tags: His6-SUMO (N-terminal, cleaved by ULP1); label: 5'-IRD700 on both strands (EMSA); text calls it 60 bp)
T1 sequence: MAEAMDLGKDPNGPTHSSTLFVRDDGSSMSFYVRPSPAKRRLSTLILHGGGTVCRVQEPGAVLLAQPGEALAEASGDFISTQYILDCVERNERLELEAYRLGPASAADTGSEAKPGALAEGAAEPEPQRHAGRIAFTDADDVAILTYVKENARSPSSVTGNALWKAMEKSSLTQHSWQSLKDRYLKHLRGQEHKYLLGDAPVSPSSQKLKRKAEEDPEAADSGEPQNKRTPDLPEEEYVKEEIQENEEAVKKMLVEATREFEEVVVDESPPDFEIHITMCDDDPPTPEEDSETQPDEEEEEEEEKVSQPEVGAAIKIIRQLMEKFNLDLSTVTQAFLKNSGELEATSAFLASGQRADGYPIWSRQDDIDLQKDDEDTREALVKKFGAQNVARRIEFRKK

[1] = biological target: TRF2 full length;Rap1 full length (Homo sapiens?;Homo sapiens?, UniProt Q15554;Q9NYB0 1-542;1-399, |); assay: EMSA; discrete bandshift, no EBNA1; EMSA: 10 mM HEPES pH 7.5, 300 mM KCl (100 mM for TRFH), 5 mM MgCl2, 1 mM ZnCl2, 5 mM BME, 0.05% NP-40, 5% glycerol; 5 nM probe; 20 nM EBNA1 in TRF2/Rap1 titrations; 1.4% agarose; temperature not stated; settings: protein: recombinant;recombinant; tags: His6-SUMO (N-terminal, cleaved by ULP1);His6-SUMO (N-terminal, cleaved by ULP1); chain copies: 2;2; label: 5'-IRD700 on both strands (EMSA); text calls it 60 bp)
[2] = biological target: EBNA1 DBD 401-607;TRF2 full length;Rap1 full length (Epstein-Barr virus;Homo sapiens?;Homo …, UniProt P03211;Q15554;Q9NYB0 401-607;1-542;1-399, ||); assay: EMSA; TRF2/Rap1 titrated with EBNA1 401-607; binding increased roughly twofold; EMSA: 10 mM HEPES pH 7.5, 300 mM KCl (100 mM for TRFH), 5 mM MgCl2, 1 mM ZnCl2, 5 mM BME, 0.05% NP-40, 5% glycerol; 5 nM probe; 20 nM EBNA1 in TRF2/Rap1 titrations; 1.4% agarose; temperature not stated; settings: protein: recombinant;recombinant;recombinant; label: 5'-IRD700 on both strands (EMSA); text calls it 60 bp)
[3] = biological target: EBNA1 459-607;TRF2 TRFH domain (Epstein-Barr virus;Homo sapiens?, UniProt P03211;Q15554 459-607;85-287, |); assay: EMSA; clear TRFH supershift; EMSA: 10 mM HEPES pH 7.5, 300 mM KCl (100 mM for TRFH), 5 mM MgCl2, 1 mM ZnCl2, 5 mM BME, 0.05% NP-40, 5% glycerol; 5 nM probe; 20 nM EBNA1 in TRF2/Rap1 titrations; 1.4% agarose; temperature not stated; settings: protein: recombinant;recombinant; tags: ;GST (N-terminal); chain copies: 4;2; label: 5'-IRD700 on both strands (EMSA); text calls it 60 bp)
[4] = biological target: EBNA1 DBD 401-607;TRF2 TRFH domain (Epstein-Barr virus;Homo sapiens?, UniProt P03211;Q15554 401-607;85-287, |); assay: as above; settings: protein: recombinant;recombinant; tags: His6-SUMO (N-terminal, cleaved by ULP1);GST (N-terminal); chain copies: 4;2; label: 5'-IRD700 on both strands (EMSA); text calls it 60 bp)
[5] = biological target: EBNA1 DBD 401-607;TRF2 full length (Epstein-Barr virus;Homo sapiens?, UniProt P03211;Q15554 401-607;1-542, |); assay: EMSA; TRF2 titrated with EBNA1 401-607; binding increased roughly twofold; EMSA: 10 mM HEPES pH 7.5, 300 mM KCl (100 mM for TRFH), 5 mM MgCl2, 1 mM ZnCl2, 5 mM BME, 0.05% NP-40, 5% glycerol; 5 nM probe; 20 nM EBNA1 in TRF2/Rap1 titrations; 1.4% agarose; temperature not stated; settings: protein: recombinant;recombinant; tags: His6-SUMO (N-terminal, cleaved by ULP1);His6-SUMO (N-terminal, cleaved by ULP1); chain copies: 4;2; label: 5'-IRD700 on both strands (EMSA); text calls it 60 bp)

Chain of EBNA1 459-607;TRF2 TRFH domain (Q15554 85-287, one chain of several): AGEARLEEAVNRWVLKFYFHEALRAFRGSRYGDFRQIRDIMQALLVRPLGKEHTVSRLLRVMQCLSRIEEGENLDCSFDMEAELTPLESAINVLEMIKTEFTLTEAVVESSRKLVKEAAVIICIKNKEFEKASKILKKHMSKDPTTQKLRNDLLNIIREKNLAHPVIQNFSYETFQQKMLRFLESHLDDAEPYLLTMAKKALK
Chain of EBNA1 DBD 401-607;TRF2 TRFH domain (Q15554 85-287, one chain of several): as above

B1: ½DS (EBV oriP dyad symmetry half) (dsDNA)
DNA 1: TAACCCTAATTCGATAGCATATGCTTCCCGTTGGGTAACATATGCTATTGAATTAGGGTTAG
DNA 2: CTAACCCTAATTCAATAGCATATGTTACCCAACGGGAAGCATATGCTATCGAATTAGGGTTA
B1: no binding (Rap1 full length); binds [1]; binds [2]. B1: binds [3]; binds [4]; binds [5].
